In patent US20240425607A1, “IL-18BP ANTAGONIST ANTIBODIES AND THEIR USE IN MONOTHERAPY AND COMBINATION THERAPY IN THE TREATMENT OF CANCER” (Compugen Ltd., priority 2023, published 2024):
Positions count from the first letter of the chain named.

B1: ADI-71710: anti-IL18-BP antibody, sequences in FIG. 2I; 66650 lineage (antibody, V domains shown)
VH: QVQLVQSGAEVKKPGASVKVSCKASGYTFGIYAMHWVRQAPGQRLEWMGWIHAGTGVTKYSQKFQGRVTITRDTSASTAYMELSSLRSEDTAVYYCARGLGEVGPTGTSWFDPWGQGTLVTVSS
VL: DIQMTQSPSTLSASVGDRVTITCRASQSISSWLAWYQQKPGKAPKLLIYEASSLESGVPSRFSGSGSGTEFTLTISSLQPDDFATYYCQQYRYSPFTFGGGTKVEIK
B2: ADI-71701: anti-IL18-BP antibody, sequences in FIG. 2E; 66650 lineage (antibody, V domains shown)
VH: B1 VH with G30N, I31S, V57N
VL: B1 VL with S9P, Y93V, S94F
B3: ADI-71707: anti-IL18-BP antibody, sequences in FIG. 2M; 66650 lineage (antibody, V domains shown)
VH: B1 VH with G30R, I31H, V57N, K59L
VL: B1 VL with Y93L, S94G
B4: ADI-71719: anti-IL18-BP antibody, sequences in FIG. 2B; 66670 lineage (antibody, V domains shown)
VH: QVQLVQSGAEVKKPGSSVKVSCKASGGTFNSYVISWVRQAPGQGLEWMGGIIPGAGTANYAQKFQGRVTITADESTSTAYMELSSLRSEDTAVYYCARGRHSHETWGQGTLVTVSS
VL: DIQMTQSPSSVSASVGDRVTITCRASQGISSWLAWYQQKPGKAPKLLIYAASSLQSGVPSRFSGSGSGTDFTLTISSLQPEDFATYYCQQVYSLPWTFGGGTKVEIK
B5: ADI-71742: anti-IL18-BP antibody, sequences in FIG. 2Q (antibody, V domains shown)
VH: QLQLQESSPGLVKPSETLSLTCTVSGGSISSPDYPWGWIRQPPGKGLEWIGSIFYSGNTYYNPSLKSRVTISVDTSKNQFSLKLSSVTAADTAVYYCARGPHRQVFDYWGQGTLVTVSS
VL: B4 VL with V91G, Y92W, L94F, W96Y
B6: ADI-71744: anti-IL18-BP antibody, sequences in FIG. 2R (antibody, V domains shown)
VH: B5 VH with S8G, P32S, D33E, P35G, F54V, Y55N, N58S, H102Y
VL: B4 VL with V91G, Y92W, L94F, W96Y
B7: ADI-71736: anti-IL18-BP antibody, sequences in FIG. 2L; 66716 lineage (antibody, V domains shown)
VH: B5 VH with S8G, P32S, D33E, P35G, F54V, Y55N, N58S
VL: B4 VL with L46H, V91G, Y92F, L94F, W96Y
B8: ADI-71741: anti-IL18-BP antibody, sequences in FIG. 2P (antibody, V domains shown)
VH: B5 VH with S8G, P32S, F54Y, N58S, H102Y
VL: B4 VL with V91G, Y92N, L94F, W96Y
B9: ADI-71720: anti-IL18-BP antibody, sequences in FIG. 2C; 66670 lineage (antibody, V domains shown)
VH: B4 VH with N30S, S31E
VL: B4 VL with S76G
B10: ADI-71755: anti-IL18-BP antibody, sequences in FIG. 2T (antibody, V domains shown)
VH: B5 VH with S8G, H102F
VL: B4 VL with V91G, Y92W, L94F, W96Y
B11: ADI-71663: anti-IL18-BP antibody, sequences in FIG. 2F; 66692 lineage (antibody, V domains shown)
VH: EVQLLESGGGLVQPGGSLRLSCAASGFTFGNTAMSWVRQAPGKGLEWVSAISANAGSTYYADSVKGRFTISRDNSKNTLYLQMNSLRAEDTAVYYCAKGPDRQVFDYWGQGTLVTVSS
VL: B4 VL with Q90H, V91A, Y92L, S93F, L94F, W96Y
B12: ADI-71753: anti-IL18-BP antibody, sequences in FIG. 2S (antibody, V domains shown)
VH: B5 VH with S8G, S30F, P32S, P35Y, G37S, S52V, F54A, N58S, V87A, H102F
VL: B4 VL with V91G, Y92S, L94F, W96Y
B13: ADI-71728: anti-IL18-BP antibody, sequences in FIG. 2O; 66670 lineage (antibody, V domains shown)
VH: B4 VH with N30S, S31E, V33P, G54Y, A55S, N59V, S102G
VL: B4 VL with L94I

assay: Fab Tm by dynamic scanning fluorimetry (DSF); format: physicochemical; conditions: optimized antibodies
Procedure: 10 μL of 20× Sypro Orange is added to 20 μL of 0.2-1 mg/mL mAb or Fab solution. A RT-PCR instrument (BioRad CFX96 RT PCR) is used to ramp the sample plate temperature from 40 to 95° C. at 0.5° C. increment, with 2 min equilibrate at each temperature. The negative of first derivative for the raw data is used to extract Tm.

| Molecule | Fab Tm (DSF, ° C.) [°C] |
| --- | --- |
| B1 | 71.5 |
| B2 | 71.5 |
| B3 | 71.0 |
| B4 | 72.5 |
| B5 | 74.0 |
| B6 | 74.5 |
| B7 | 73.5 |
| B8 | 73.5 |
| B9 | 72.5 |
| B10 | 74.5 |
| B11 | 68.0 |
| B12 | 74.5 |
| B13 | 73.0 |

assay: SEC-HPLC % monomer; format: physicochemical; conditions: optimized antibodies
Procedure: A TSKgel SuperSW mAb HTP column (22855) was used for fast SEC analysis of mammalian produced mAbs at 0.4 mL/min with a cycle time of 6 min/run. 200 mM Sodium Phosphate and 250 mM Sodium Chloride was used as the mobile phase.

| Molecule | SEC-HPLC, % monomer [%] |
| --- | --- |
| B1 | 97.9 |
| B2 | 98.6 |
| B3 | 98.8 |
| B4 | 94.5 |
| B5 | 91.3 |
| B6 | 88.1 |
| B7 | 79.2 |
| B8 | 99.4 |
| B9 | 98.6 |
| B10 | 92.9 |
| B11 | 93.9 |
| B12 | 96.9 |
| B13 | 95.0 |
